Experiments:
[1] = target: T1, Flag-Pyk2 (proline-rich tyrosine kinase 2 with N-terminal Flag tag, expressed from pFlag-Pyk2) (UniProt Q14289 1-1009); test: anti-Flag immunoprecipitation from 293T lysate, Western blot with anti-GST
T1 construct: Overexpressed in cells; not shown: N-terminal Flag tag from the pBICEP-CMV-1 vector
Text: To determine a SOCS2 domain which is important in the binding with Pyk2, the present inventors carried out the following experiment. HA-Ubiquitin, pFlag-Pyk2, and, GST expression vector, pGST-SOCS2, pGST-SOCS2-ΔSH2 or pGST-SOCS2-ΔSOCS were cotransformed into 293T cells using Lipofectamin 2000. After 4 hr of transformation, the medium was replaced to a new culture medium, and 24 hr later, cells were lysed. The each cell lysate was allowed to react with anti-Flag antibody. The antigen-antibody complexes were precipitated by incubation at 4° C. for 1 day with G-protein-conjugated agarose. The immunoprecipitated complexes were washed with 1×PBS. Western blot analysis was performed by the same method in Example <2-1> using anti-GST antibody, anti-Flag antibody, or anti-HA antibody (Santa Cruz, U.S.A.).

[2] = target: T1, Flag-Pyk2 (proline-rich tyrosine kinase …); test: anti-Flag immunoprecipitation from NK-92 lysate, Western blot with anti-GST
Text: (§1) From Example <12-4>, it was confirmed that phosphorylated Pyk2 and SOCS2 bind each other. To determine whether phosphorylation of Pyk2 is important in the binding with SOCS2 or not, the present inventors carried out the following experiment. First of all, HA-ubiquitin, pGST-SOCS2, and, pFlag-Pyk2 or pFlag-Pyk2-Y402F were cotransformed into NK-92 cells using Lipofectamin 2000. After 4 hr of transformation, the medium was replaced to a new culture medium, and 24 hr later, cells were lysed. The each cell lysate was allowed to react with anti-Flag antibody. The antigen-antibody complexes were precipitated by incubation at 4° C. for 1 day with G-protein-conjugated agarose. The immunoprecipitated complexes were washed with 1×PBS. Western blot analysis was performed by the same method in Example <2-1> using anti-p-Pyk2^Tyr402 antibody, anti-GST antibody, anti-Flag antibody or anti-HA antibody.

[3] = target: T2, Flag-Pyk2-Y402F (mutant Pyk2 in which tyrosine 402 had been mutated to phenylalanine, N-terminal Flag tag) (UniProt Q14289 1-1009); test: as above
T2 construct: Made from pFlag-Pyk2 by site-directed mutagenesis; also called pFlag-Pyk2-Y402F; not shown: N-terminal Flag tag from the pBICEP-CMV-1 vector
Text: as §1

T1 sequence (Q14289 whole entry): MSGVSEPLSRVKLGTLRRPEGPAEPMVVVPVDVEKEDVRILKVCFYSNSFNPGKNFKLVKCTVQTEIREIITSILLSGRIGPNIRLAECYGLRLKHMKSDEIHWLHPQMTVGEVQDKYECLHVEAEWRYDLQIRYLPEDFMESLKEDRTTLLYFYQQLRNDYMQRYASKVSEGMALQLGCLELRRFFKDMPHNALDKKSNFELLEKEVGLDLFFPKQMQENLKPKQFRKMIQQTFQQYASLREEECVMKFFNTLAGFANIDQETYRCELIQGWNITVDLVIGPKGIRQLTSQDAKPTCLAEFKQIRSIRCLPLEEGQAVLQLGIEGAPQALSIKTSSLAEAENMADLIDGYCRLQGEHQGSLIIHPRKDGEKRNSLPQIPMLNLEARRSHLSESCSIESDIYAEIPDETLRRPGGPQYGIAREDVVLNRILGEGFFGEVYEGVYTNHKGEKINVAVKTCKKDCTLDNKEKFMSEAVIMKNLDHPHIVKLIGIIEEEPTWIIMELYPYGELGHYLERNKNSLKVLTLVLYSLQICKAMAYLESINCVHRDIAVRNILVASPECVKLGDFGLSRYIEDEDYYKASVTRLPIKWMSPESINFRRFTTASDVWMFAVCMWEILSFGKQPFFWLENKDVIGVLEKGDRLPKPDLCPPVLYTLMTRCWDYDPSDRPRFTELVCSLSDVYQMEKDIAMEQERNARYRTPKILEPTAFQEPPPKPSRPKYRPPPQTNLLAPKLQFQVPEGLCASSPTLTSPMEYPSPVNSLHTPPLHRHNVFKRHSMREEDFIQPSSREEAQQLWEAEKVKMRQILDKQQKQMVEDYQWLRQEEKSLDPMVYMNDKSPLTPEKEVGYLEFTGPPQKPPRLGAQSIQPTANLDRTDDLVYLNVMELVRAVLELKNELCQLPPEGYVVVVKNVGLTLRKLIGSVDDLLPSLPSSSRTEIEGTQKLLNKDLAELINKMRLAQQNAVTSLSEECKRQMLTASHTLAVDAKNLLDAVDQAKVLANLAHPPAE
T2 sequence (Q14289 whole entry Y402F): as the sequence (Q14289 whole entry) above, with Y402F counted along it

binding result [1]	binding result [2]	binding result [3]	Binder
no binding	–	–	MTLRCLEPSGNGGEGTRSQWGTAGSAEEPSPQAARLAKALRELGQ (other, also called pGST-SOCS2-ΔSH2; not shown: N-terminal GST tag of the pEBG vector and the junction to it) [GST-SOCS2-ΔSH2 (mutant SOCS2 in which the SH2 domain was deleted, N-terminal GST tag)]
–	binds	no binding	GST-SOCS2 (SOCS2, suppressor of cytokine signaling 2, with N-terminal GST tag, expressed from pGST-SOCS2) (other, UniProt O14508 1-198, looked up, Overexpressed in 293T or NK-92 cells and tested in cell lysate; not shown: N-terminal GST tag from the pEBG vector) MTLRCLEPSGNGGEGTRSQWGTAGSAEEPSPQAARLAKALRELGQTGWYWGSMTVNEAKEKLKEAPEGTFLIRDSSHSDYLLTISVKTSAGPTNLRIEYQDGKFRLDSIICVKSKLKQFDSVVHLIDYYVQMCKDKRTGPEAPRNGTVHLYLTKPLYTSAPSLQHLCRLTINKCTGAIWGLPLPTRLKDYLEEYKFQV

Reference: patent publication US20120282646A1 (KOREA RESEARCH INSTITUTE OF BIOSCIENCE AND BIOTECHNOLOGY, published 2012)
